# Measurements published in US20220154156A1, “PROTEINS AND METHODS FOR DISRUPTING BACTERIAL COMMUNICATION” (REGENTS OF THE UNIVERSITY OF MINNESOTA, priority 2019, published 2022).
# Values joined by “and” are separate entries in the source; they are usually repeats but may differ in a detail not shown here. Equal values may be shown once. Numbered stars: 1 amine (or outer) side, 2 acyl side, 3 side chain; on linkers, the order of the positions; unused ones are H or OH. Bridge positions count the residues as written; N and C are the ends. Square brackets hold non-standard residues; d marks the D form. Peptide text beside a SMILES is read from it. X1 = CC(C)CCCCCCCCC[C@H](CC(=O)[*:1])O[*:2]
# B1: GcL: lactonase isolated from the thermophilic bacteria Geobacillus caldoxylosilyticus, SEQ ID NO:1 (protein, listed as Parageobacillus caldoxylosilyticus)
# chain: MTVKKLYFIPAGRCMLDHSSVNSALTPGKLLNLPVWCYLLETEEGPILVDTGMPESAVNNEGLFNGTFVEGQILPKMTEEDRIVNILKRVGYEPDDLLYIISSHLHFDHAGGNGAFTNTPIIVQRTEYEAALHREEYMKECILPHLNYKIIEGDYEVVPGVQLLYTPGHSPGHQSLFIETEQSGSVLLTIDASYTKENFEDEVPFAGFDPELALSSIKRLKEVVKKEKPIIFFGHDIEQEKSCRVFPEYI
# B2: SsoPox: lactonase isolated from Sulfolobus solfataricus, SEQ ID NO:5 (protein, listed as Sulfolobus solfataricus)
# chain: GMVRISIAGGNEIDPGSMGLTLFHEHLRLITEVVRWNWPHLYNEDEELKRAIDAVNAAKKYGVKTIIDLTVAGIGCDVRFNEKVAKATGVNIIMGTGFYTYTEIPFYFKNRGIDSLVDAFVHDITIGIQGTNTRAAFVKAVIDSSGLTKDVEMAIRAAAKAHIKTDVPIITHSFVGNKSSLDLIRIFKEEGVDLARTVIGHVGDTDDISFIEQILREGAFIGLDRFGLDIYLPLDKRVKTAIELIKRGWIDQLLLSHDYCPTIDWYPPEVVRSTVPDWTMTLIFEKVIPRMRSEGITEEQINRVLIDNPRRLFTGR
# How the values were obtained:
# [1] = tested on: bacterial communities at the surface of the steel; assay: 16S rDNA analysis of microbial community on steel coupons; details: treated coupons
# Experimental: After photo imaging, on each of the coupon surface, all material including biofilm and tubercles were scraped into a sterile 50 ml polypropylene centrifuge tube (Corning, N.Y., USA) using a steel scraper. A 0.5 g subsample of the surface material from each coupon sample was used for DNA extraction using PowerSoil DNA kit (MoBio Laboratories). The extracted DNA was used to sequence the V4 region of 16S rDNA gene and describe changes in the composition of bacterial communities. DNA samples were quantified with a NanoDrop 2000 Spectrophotometer (Thermo Scientific, Waltham, Mass. USA) and then sent overnight to the University of Minnesota Genomics Center for 16S rDNA sequencing. 30 samples were multiplexed into a single run of Illumina MiSeq paired-end 300 cycles, which was expected to generate a total of 15 million sequences of the 254 bp portions of the 16S rDNA V4 region.
# Sequence data were processed and analyzed using the MOTHUR program. To ensure high quality data for analysis, sequence reads containing ambiguous bases, homopolymers >7 bp, more than one mismatch in the primer sequence, or an average per base quality score below 25 were removed. Sequences that only appear once in the total set were assumed to be a result of sequencing error and removed from the analysis. Chimeric sequences were also removed using the UCHIME algorithm within the MOTHUR program. […]
# [2] = tested on: corrosion tubercles on steel coupons; assay: Biocorrosion of coated steel coupons in Duluth-Superior Harbor water, 8 weeks; design: concentration or dose not given beside the values; details: silica gel coating, two months in DSH water
# Experimental: The steel coupons were washed with soap water, lightly brushed for a few seconds with a test tube brush, and then rinsed with Milli-Q water to remove any loose material. Each coupon was designated with a unique number and weighed before being randomly assigned to a specific experimental treatment.
# Each compound or enzyme was added to 5 ml of the silica gel matrix to develop different coating treatments. These coatings were applied by dipping coupons into the appropriate gel mixture for 1 minute, and then the coating on the coupon surface was air-dried at room temperature for 2 hours.
# Six treatments and three controls were investigated for corrosion rate and changes in bacterial communities (Table 10). Each treatment or control contained three replicate steel coupons. After the triplicate steel coupons were coated with each biochemical, enzyme or bacterial treatment, they were incubated in experimental microcosms constructed from 10-gallon glass aquaria (Aqueon Glass, 50.8 cm×25.4 cm×30.5 cm) (FIG. 24). Each microcosm was equipped with an aquarium pump (Aquarium Systems Mini-Jet 404) to constantly circulate the water (˜2 L hr−1), and covered with a piece of acrylic with one corner cut out to allow gas exchange. The coupons were hold with plastic holders and immersed in water taken from the DSH for 8 weeks and then recovered for analyses.
# The coupons in each treatment was photographed by the end of the experiment. Biocorrosion was evaluated by the number and coverage of corrosion tubercles, and also by imaging of coupon surfaces with an environmental scanning electron microscope (ESEM). The coupon images were captured with DSLR camera immediately after being removed from the harbor water, and then tubercle numbers and total area in digital images were measured using the analyze menu within ImageJ software (NIH, Bethesda, Md., USA). Surface roughness measurements were also made after the exposed coupons were cleaned with ASTM G1-90 iron and steel chemical cleaning procedure (2 min in 37% HCl, 50 g/L SnCl2). A Hitachi TM-3030 ESEM was used to view details of the cleaned coupon surface and the 3D-View software was used to generate surface roughness measurements (SRa). Statistics analysis (T-tests) of the tubercle numbers, coverage and surface roughness were performed using Microsoft Excel software.
# [3] = molecular target: GcL, quorum quenching lactonase from Geobacillus caldoxylosilyticus (Parageobacillus caldoxylosilyticus) (Geobacillus caldoxylosilyticus (Parageobacillus caldoxylosilyticus)); assay: X-ray crystal structure, homodimer interface analysis
# [4] = Lactonase assay (pH indicator, cresol purple), kinetic measurements; type: biochemical
# Experimental: Kinetic measurements. The determination of GcL catalytic efficiency was performed by using a microplate reader (Synergy HTX, BioTek, USA) and the software Gen5.1 over a range of substrates (FIG. 2). The reactions were operate in a 96-well plate at a path length of 5.8 mm for a 200 μl reaction volume at room temperature. The catalytic parameters were achieved by fitting the data to Michaelis-Menten equation with the Graph-Pad Prism 5 software. When, Vmax was not reached, the catalytic efficiency was determined by fitting the linear part of Michaelis-Menten plot to a linear regression using Graph-Pad Prism 5.
# Lactonase assay. The AHL lactonolysis consisting in the opening of the lactone ring generates a proton, and leads to an acidification of the media. This property allowed the characterization of the lactonases by using a pH indicator assay. To perform the experiment 5 μl of enzyme were added to a solution containing 10 μl of substrates at various concentrations and 185 μl of lactonase buffer (2.5 mM Bicine pH 8.3, 150 mM NaCl, 0.2 mM CoCl2, 0.2 mM cresol purple, 0.5% DMSO). This assay was performed at 25° C. and the time course of the lactones hydrolysis was recorded at 577 nm. The characterization of the enzyme was proceeding against a large panel of AHLs: C4-AHL, C6-AHL, C8-AHL, C10-AHL, 3-oxo-C8-AHL and against γ-Butyrolactone, γ-Heptalactone, γ-Nonalactone, γ-Decanolactone, δ-Valerolactone, δ-Octanolactone, δ-Nonalactone, δ-Decalactone, ε-Caprolactone, ε-Decalactone, Whiskey lactone.
# [5] = at 75° C.; cited from earlier work
# Pseudomonas aeruginosa = assay: Caenorhabditis elegans infection models (slow-killing, paralysis); type: in vivo; details: dose-dependent
# Description: FIG. 34A-34C show protection of Caenorhabditis elegans from infection by Pseudomonas aeruginosa by lactonases. Slow-killing, gut infection assay performed with P. aeruginosa. Lactonases SsoPox (A) and GcL (B) are sprayed in the petri dish plate, and final concentrations are given. (C) Paralysis assay by P. aeruginosa, and treatment with SsoPox. […] OP50 Escherichia coli strain serves as a non-virulent control.
# The protection by lactonases is dose-dependent (FIG. 34) in both models.
# soil bacterial community = assay: Different lactonases on soil microbial community (Example 8); type: cell-based; details: 7 days, vs inactive SsoPox 5A8
# Experimental: Principal component analysis (PCA) based on deep bacterial 16S rDNA sequences (Illumina V4 region).
# The same experiments as described above were performed on the same soil microbial community but with two different lactonases, GcL, and Ssopox W263I. These enzymes differ primarily by their substrate specificity. […] This is important because different bacteria use different AHLs to communicate. Indeed, The structure of AHLs vary a lot with respect to the length of N-acyl chains (from C4 to C18), the hydroxyl or oxo group of the acyl chain and the saturated or unsaturated state of the carbon chain^1. The hydrophobicity of AHLs relates to their passive diffusion through membranes. […] In fact, regulatory circuits may be interconnected, like in P. aeruginosa^6, and allow for compensatory responses: if the LasI/LasR system is inactivated, the RhlI/RhlR system can still control LasI/LasR-spectific functions^7.
# algae and Zebra mussels = assay: Antifouling activity of acrylic-lactonase coating, Lake Minnetonka, 1 month; details: 200 μg/mL, polycarbonate, controls BSA, copper oxide
# Experimental: Various polycarbonate samples were submerged in Lake Minnetonka (Tonka bay marina) for 1 month. Coatings were prepared with 200 μg/mL of control ingredients (BSA or copper oxide (CuO)) and of lactonases (SsoPox and GcL). Large zebra mussels are circled.
# We note that microscopy imaging highlights large differences in the surface colonization between the different treatments.
molecule,measurement,setting,value
CC(C)CCCCCCCCC[C@@H]1CC(=O)N[C@@H](CCC(=O)O)C(=O)N[C@@H](CC(C)C)C(=O)N[C@H](CC(C)C)C(=O)N[C@@H](C(C)C)C(=O)N[C@@H](CC(=O)O)C(=O)N[C@H](CC(C)C)C(=O)N[C@@H](CC(C)C)C(=O)O1 [surfactin] (EL[dL]VD[dL]L; linker N-C via X1),"abundance of Burkholderiales, Pseudomonadales and Rhodospirillales",[1],significantly reduced
same,reduction of the coverage of corrosion tubercles,[2],37%
same,reduction of the number (formation) of corrosion tubercles,[2],31%
"GcL, quorum quenching lactonase from Geobacillus caldoxylosilyticus (Parageobacillus caldoxylosilyticus) (from UniProt A3FJ64 1-250) (enzyme)",interface surface between dimer,[3],1180 Å^2
B1,substrate specificity,[4]; AHL acyl chain length,proficiently degrades lactones ranging from C4 to C12 AHLs
same,catalytic efficiencies,[4]; AHLs with both short and long acyl chains,10^4 to 10^6 M^−1·s^−1
same,Km,[4]; range over tested substrates (with the exception of C4-AHL),0.5 to 20 µM and 0.67 to 21.1 µM
same,half-life,[5],2.542 ± 0.167 h
same,survival of Caenorhabditis elegans,Pseudomonas aeruginosa,increase survival
same,planktonic microbial community composition,soil bacterial community,induce differential planktonic microbial community biases
same,inhibition of biofouling,algae and Zebra mussels,more efficient at inhibiting biofouling than controls
B2,survival of Caenorhabditis elegans,Pseudomonas aeruginosa,increase survival
same,inhibition of biofouling,algae and Zebra mussels,more efficient at inhibiting biofouling than controls
